Publication PMC5443773 (Scientific Reports, 2017)

Target: the molecule itself
Assay: crystal structure

B1: El Tor cholera toxin B-pentamer (natural protein)
chain: TPQNITDLCAEYHNTQIYTLNDKIFSYTESLAGKREMAIITFKNGAIFQVEVPGSQHIDSQKKAIERMKDTLRIAYLTEAKVEKLCVWNNKTPHAIAAISMAN
B1 was tested, and the “stoichiometry N” value was 5.
